The source of these data is paper PMC8629256, “Structural and functional studies of D109A human αB-crystallin contributing to the development of cataract and cardiomyopathy diseases” (PLoS ONE, 2021).

The series deals with the molecule itself. The experiment in a line: AUC; sedimentation velocity, 20 °C, 40,000 rpm, 40 mM sodium phosphate, 100 mM NaCl, 1 mM EDTA, 3 mM NaN3, pH 7.0; wild type 1.0 mg/mL, D109A 0.5 mg/mL; c(s) and c(M) by SEDFIT; run after dialysis and again after 24 h at 20 °C; size of the oligomer.

B1: wild-type human αB-crystallin (natural protein)
chain: MDIAIHHPWIRRPFFPFHSPSRLFDQFFGEHLLESDLFPTSTSLSPFYLRPPSFLRAPSWFDTGLSEMRLEKDRFSVNLDVKHFSPEELKVKVLGDVIEVHGKHEERQDEHGFISREFHRKYRIPADVDPLTITSSLSSDGVLTVNGPRKQVSGPERTIPITREEKPAVTAAPKK
notes: human αB-crystallin (HSPB5), 175 amino acids, coded by CRYAB; cDNA cloned in pET-28b(+); Polydisperse oligomer; 32 subunits is the number worked out for the majority species in AUC (about 650 kDa); also called heat shock protein β5; HSPB5; source: E. coli BL21 (DE3), purified (DEAE-cellulose anion exchange in urea buffer, dialysed against water); copies: 32
As to B1, the “stoichiometry N” value came out at 32 subunits.

B2: D109A mutant human αB-crystallin (natural protein)
chain: MDIAIHHPWIRRPFFPFHSPSRLFDQFFGEHLLESDLFPTSTSLSPFYLRPPSFLRAPSWFDTGLSEMRLEKDRFSVNLDVKHFSPEELKVKVLGDVIEVHGKHEERQAEHGFISREFHRKYRIPADVDPLTITSSLSSDGVLTVNGPRKQVSGPERTIPITREEKPAVTAAPKK
notes: human αB-crystallin (HSPB5) with the patient mutation D109A (cDNA 326 A>C), made by site-directed mutagenesis of the wild-type cDNA in pET-28b(+); Polydisperse oligomer; 53 subunits is the number worked out for the majority species in AUC (about 1,060 kDa); larger ensembles of 1500-3000 kDa are also seen; The mutation is reported in patients with myofibrillar myopathy; No tag is named; see the …
For the protein B2, the “stoichiometry N” value is 53 subunits.
